From publication PMC6312871 (Heliyon, 2018)
“And” between values parts separate entries of the source, which are not always exact repeats. Equal entries are not always repeated. Values belong to the molecule of their own block, whether it stands above or below them.

Key:
[1] = target: Photosystem I (monomer) (Prochlorococcus marinus MIT9313 (endogenous in thylakoid membranes)) (UniProt Q7V510); experiment: sucrose gradient centrifugation
[2] = target: Photosystem I (monomer) (Prochlorococcus marinus MIT9313 (endogenous in thylakoid membranes)) (UniProt Q7V510); experiment: native gel or EMSA
[3] = target: Photosystem II (monomer, core complex) (Prochlorococcus marinus MIT9313 (endogenous in thylakoid membranes)) (UniProt Q7V6I0); experiment: native gel or EMSA
Chain of Photosystem II (monomer, core complex) (Prochlorococcus marinus MIT9313 (endogenous in thylakoid membranes)) (Q7V6I0 whole entry, looked up, one chain of several): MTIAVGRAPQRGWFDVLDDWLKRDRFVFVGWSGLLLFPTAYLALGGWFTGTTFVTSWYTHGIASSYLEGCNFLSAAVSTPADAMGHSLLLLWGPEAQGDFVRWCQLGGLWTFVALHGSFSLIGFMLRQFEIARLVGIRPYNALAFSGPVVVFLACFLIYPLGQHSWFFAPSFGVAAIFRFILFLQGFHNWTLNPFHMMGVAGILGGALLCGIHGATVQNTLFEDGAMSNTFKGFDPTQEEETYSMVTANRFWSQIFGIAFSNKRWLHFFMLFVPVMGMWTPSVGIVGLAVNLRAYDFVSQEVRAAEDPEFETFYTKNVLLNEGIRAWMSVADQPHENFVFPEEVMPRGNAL

[4] = target: Photosystem II (monomer, core complex) (Prochlorococcus marinus MIT9313 (endogenous in thylakoid membranes)) (UniProt Q7V6I0); experiment: native gel or EMSA; remark: listed apart in the source
native gel or EMSA = target: the molecule itself; experiment: native gel or EMSA

- stoichiometry N [1]: 3
- stoichiometry N [2]: 3
Molecule: Photosystem I (monomer) (from UniProt Q7V510 1-776; Q7V511 1-749; Q7V8Y4 1-68) (complex)

- stoichiometry N [3]: 2
Molecule: Photosystem II (monomer, core complex) (from UniProt Q7V6I0 1-351; Q7V4Q1 1-49; Q7V4P9 1-65)

- stoichiometry N (PcbB per PSII dimer) [4]: 8
B1: light-harvesting antenna protein PcbB (divinyl chlorophyll a/b-binding protein) (natural protein, UniProt Q7V6U4 1-350, looked up)
chain: MQTYGNPNPTYGWWAGNAGTTNRSGKFLAAHIAHTGLMAFWAGSFTLFELSRYDPSVPMGHQPLVALPHLATLGIGVGDGGVITDTYPIVVTAVLHLVLSMVYAAGGLMHSLLFNGDIGEMGVKWARKFDFKWDDPDKLTFILGHHLFLLGLGNVQFVEWAKYYGLYDNAEGVVRTVVPNLNIGMVWNAQFNFLAINSLEDVMGGHAFLALFMMSGGLWHIVTKQAGEYTTFKGKGILSAEAQLSWALAGVGWMALVAAFWCASNTTIYPDTFFGEVLDLKFSISPYWVDTANLPEGTYTSRAWLTNIHYYLGFFYIQGHLWHALRALGFDFKRVSNAIGNADSATITLN
- stoichiometry N (native gel or EMSA): 2 and 3 and 4
